Results taken from patent US20220340657A1 (L AND L BIO CO LTD NINGBO CHINA, published 2022).
Several values for one entry are separate records, joined by “and”; a condition that tells them apart may be missing. Equal values may be shown once.

T1: human LAG-3-his (human, UniProt P18627 23-422)
T1 construct: range 23-422; also called hLAG-3-his; hLAG-3
T1 sequence: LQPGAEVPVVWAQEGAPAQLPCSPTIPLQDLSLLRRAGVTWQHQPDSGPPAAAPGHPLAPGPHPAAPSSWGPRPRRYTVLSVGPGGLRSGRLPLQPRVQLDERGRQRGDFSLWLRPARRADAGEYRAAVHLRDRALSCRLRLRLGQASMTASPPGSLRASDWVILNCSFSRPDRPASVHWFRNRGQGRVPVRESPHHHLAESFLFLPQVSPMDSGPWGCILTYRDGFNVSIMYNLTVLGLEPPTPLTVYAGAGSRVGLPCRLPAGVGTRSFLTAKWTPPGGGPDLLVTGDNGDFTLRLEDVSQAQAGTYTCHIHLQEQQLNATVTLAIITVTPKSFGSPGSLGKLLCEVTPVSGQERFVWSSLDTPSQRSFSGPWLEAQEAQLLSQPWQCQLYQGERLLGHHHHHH

T2: murine LAG-3 his tagged (mLAG-3-his) (mouse, UniProt Q61790 23-406)
T2 construct: range 23-406; also called mouse LAG-3
T2 sequence: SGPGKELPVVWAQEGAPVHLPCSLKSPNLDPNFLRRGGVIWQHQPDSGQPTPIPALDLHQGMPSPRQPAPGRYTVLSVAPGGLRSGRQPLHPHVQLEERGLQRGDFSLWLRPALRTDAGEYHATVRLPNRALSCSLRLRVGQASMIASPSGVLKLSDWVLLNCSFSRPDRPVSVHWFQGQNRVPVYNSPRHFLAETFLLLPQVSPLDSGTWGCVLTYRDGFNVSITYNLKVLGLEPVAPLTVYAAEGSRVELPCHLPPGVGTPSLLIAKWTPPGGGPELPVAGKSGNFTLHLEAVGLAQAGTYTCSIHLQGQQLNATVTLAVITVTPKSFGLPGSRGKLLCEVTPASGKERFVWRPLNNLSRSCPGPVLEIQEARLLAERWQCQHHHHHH

T3: hLAG-3-D12-hFc (human, UniProt P18627 23-239)
T3 construct: range 23-239
T3 sequence (looked up): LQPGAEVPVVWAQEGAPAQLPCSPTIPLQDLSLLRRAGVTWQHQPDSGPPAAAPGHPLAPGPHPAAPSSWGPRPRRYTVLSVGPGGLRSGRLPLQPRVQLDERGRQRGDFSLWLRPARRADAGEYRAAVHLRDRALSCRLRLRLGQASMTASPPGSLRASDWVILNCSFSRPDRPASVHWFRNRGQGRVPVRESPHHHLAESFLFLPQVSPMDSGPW


Assays:
[1] = biological target: T1, human LAG-3-his; assay: ELISA on hLAG-3
Protocol: (§1) After discarding the liquid, a blocking solution of 5% skimmed milk (Bright skimmed milk powder) diluted with PBS was added at 230 μl per well, followed by incubating at 37° C. for 3 hours or 4° C. overnight (16-18 hours) for blocking. Subsequently, the blocking solution was discarded, and the micropiate was washed 5 times with PBST buffer (pH 7.4 PBS containing 0.05% tweeen-20). Then 50 μl/well of the supernatant (containing the antibody to be tested) or a starting concentration of 10 μg/ml of the antibody to be tested, which was diluted 5 times in gradient, was added, followed by incubating the mixture for 1 hour at 37° C. […] After washing the microplate 5 times with PBST, 50 μl/well TIMB chromogenic substrate (KPL, Cat. No.: 52-00-03) was added, and then incubated for […] at room temperature. Finally, 50 μl/well of 1 M H₂SO₄ was added to stop the reaction. The absorbance value at 450 nm was read by […] GO microplate reader (ThermoFisher, Cat. No.: 51119200). The clones with high affinity were selected according to the OD value or the EC₅₀ value was calculated (for antibodies with known concentrations).

[2] = biological target: T2, murine LAG-3 his tagged (mLAG-3-his); assay: ELISA
Protocol: as §1

[3] = biological target: T3, hLAG-3-D12-hFc; assay: ELISA
Protocol: as §1

[4] = biological target: T1, human LAG-3-his; assay: ELISA
Protocol: as §1

[5] = biological target: T1, human LAG-3-his; assay: ELISA on human LAG-3, same experiment
[6] = biological target: T1, human LAG-3-his; assay: Biacore T200, antibody captured on Protein A, LAG-3-his in solution
Protocol: First, Protein A (Thermo Pierce, Cat. No.: 21181) was coupled to the biosensor chip CMS (GE, Cat. No.: BR-4005-30) using pH 7.4 running buffer HBS-EP+ (10 mM HEPES, 150 mM NaCl, 3 mM EDTA, and 0.05% P20). The chip was activated with a freshly prepared 50 mM NHS (N-hydroxysuccinimide) and 200 mM EDC (1-ethyl-3-(3-dimethylaminopropyl) carbodiimide hydrochloride) followed by injection of 10 μg/ml Protein A prepared with 10 mM NaAc (pH4.0). […] The flow rate was […], binding time was 180 s, and dissociation time was 300 s, After the experiment, the chip was washed for 30 s with 10 mM Glycine-HCl (pH 1.5) at a flow rate of 30 μl/min. The experimental data were fitted with the 1:1 Langmuir model using the software of Biacore T200 evaluation version 3.0 (GE), and the value of affinity KD was obtained.

| EC50 [1] [nM] | binding result [2] | EC50 [3] [nM] | EC50 [4] [nM] | EC50 [5] | Kd [6] [nM] | Binder |
| --- | --- | --- | --- | --- | --- | --- |
| 0.119 | no binding | 2.59 | 0.16 | 0.287 nM and 0.579 nM and 0.44 nM | 0.168 | humanized anti-human LAG-3 antibody Ab2317 (antibody, human IgG4 S228P, kappa, V domains shown, LG2317 / LG2343, human kappa / hIgG4) VH: QVQLVQSGAEVKKPGASVKVSCKASGYTFTDYEMHWVKQAPGQGLEWIGGIDPETEGIAYNQKFRGRATLTADKSTSTAYMELRSLRSDDTAVYYCTNSNYYGGREAWFAYWGQGTLVTVSS VL: DIQMTQSPSSLSASVGDRVTITCRASQDIGSSLNWYQQKPGKAPKRLIYATSSLDSGVPSRFSGSRSGSDFTLTISSLQPEDFATYYCLQYVTSPLTFGGGTKVEIKR |
| 0.142 | no binding | 2.01 | 0.19 | 0.312 nM | 0.19 | humanized antibody Ab2325 (antibody, human IgG4 S228P, kappa, V domains shown, LG2317 / LG2348, human kappa / hIgG4) VH: QVQLVQSGAEVKKPGASVKVSCKASGYTFTDYEMHWVKQAPGQGLEWMGGIDPETEGIAYNQKFRGRATMTTDTSTSTAYMELRSLRSDDTAVYYCANSNYYGGREAWFAYWGQGTLVTVSS VL: DIQMTQSPSSLSASVGDRVTITCRASQDIGSSLNWYQQKPGKAPKRLIYATSSLDSGVPSRFSGSRSGSDFTLTISSLQPEDFATYYCLQYVTSPLTFGGGTKVEIKR |
